According to patent publication US20200407457A1 (YANTAI OBIOADC BIOMEDICAL TECHNOLOGY, published 2020):

B1: Zapadcine-3d (antibody, V domains shown)
VH: QVQLVQSGSELKKPGASVKVSCKASGYTFTDFSMNWVRQAPGQGLEWMGWINTETGEPTYADDFKGRFVFSLDTSVSTAYLQISSLKAEDTAVYYCARIDYWGQGTTVTVSS
VL: DIVMTQSPLSLPVTPGEPASISCRSSQSLVHSNGNTYLHWYLQKPGQSPQLLIYKVSNRFSGVPDRFSGSGSGTDFTLKISRVEAEDVGVYYCFQSTHVPHTFGQGTKLEIKR
modifications: MMAE coupled through linker MC by thiol conventional coupling, non-cleavable; positions not given
B2: Zapadcine-3c (antibody, V domains shown)
VH: B1 VH
VL: B1 VL
modifications: MMAE coupled through linker MC-VC-PAB by thiol conventional coupling, cleavable; positions not given
B3: Zapadcine-3e (antibody, V domains shown)
VH: B1 VH
VL: B1 VL
modifications: MMAF coupled through linker MC by thiol conventional coupling, non-cleavable; positions not given
B4: Zaptuzumab (antibody, V domains shown)
VH: B1 VH
VL: B1 VL
B5: Zapadcine-3a (antibody, V domains shown)
VH: B1 VH
VL: B1 VL
modifications: MMAE coupled through linker PY-VC-PAB by thiol bridge coupling, cleavable; positions not given
B6: Zapadcine-3b (antibody, V domains shown)
VH: B1 VH
VL: B1 VL
modifications: MMAE coupled through linker PY-MAA by thiol bridge coupling, non-cleavable; positions not given
B7: Zapadcine-1a (antibody, V domains shown)
VH: B1 VH
VL: B1 VL
modifications: MMAD coupled through linker Py-Vc-PAB by thiol (disulfide) bridge coupling, cleavable; positions not given
B8: Zapadcine-1d (antibody, V domains shown)
VH: B1 VH
VL: B1 VL
modifications: MMAF coupled through linker Mc-Vc-PAB by thiol conventional coupling, cleavable; positions not given
B9: Zapadcine-1c (antibody, V domains shown)
VH: B1 VH
VL: B1 VL
modifications: MMAD coupled through linker Py-MAA by thiol bridge coupling, non-cleavable; positions not given
B10: Zapadcine-1b (antibody, V domains shown)
VH: B1 VH
VL: B1 VL
modifications: MMAD coupled through linker Mc-Vc-PAB by thiol conventional coupling, cleavable; positions not given

What follows are binders tested against T1, TRAILR2 receptor on the surface of human tumor cells (human, UniProt O14763 56-440) (assay: cell-based or functional assay).

Point of comparison: B2, “IC50, cytotoxic effect on A172 cells (CellTiter-Glo, 72 h)” value 0.703 µg/mL. Against it:
- B1 — 2.3-fold lower, 0.307 µg/mL
- B5 — 3.1-fold lower, 0.225 µg/mL
- B6 — 1.8-fold lower, 0.389 µg/mL

Point of comparison: B3, “IC50, cytotoxic effect on Jurkat E6-1 cells (CellTiter-Glo, 72 h)” value 0.0981 µg/mL. Against it:
- B1 — 17-fold lower, 0.00571 µg/mL
- B2 — within 1.5-fold, 0.0896 µg/mL
- B4 — 2-fold higher, 0.201 µg/mL
- B5 — 2.6-fold lower, 0.0372 µg/mL
- B6 — within 1.5-fold, 0.0717 µg/mL

Point of comparison: B2, “IC50, cytotoxic effect on MSTO-211H cells (CellTiter-Glo, 72 h)” value 0.22 µg/mL. Against it:
- B1 — 1.8-fold lower, 0.123 µg/mL
- B3 — within 1.5-fold, 0.177 µg/mL
- B4 — 2.3-fold higher, 0.514 µg/mL
- B5 — 1.7-fold lower, 0.127 µg/mL
- B6 — within 1.5-fold, 0.255 µg/mL

Point of comparison: B3, “IC50, cytotoxic effect on Mia PaCa-2 cells (CellTiter-Glo, 72 h)” value 0.951 µg/mL. Against it:
- B1 — 6.8-fold lower, 0.139 µg/mL
- B2 — 1.9-fold lower, 0.508 µg/mL
- B4 — 3-fold higher, 2.9 µg/mL
- B5 — 9.8-fold lower, 0.097 µg/mL
- B6 — 2.3-fold lower, 0.415 µg/mL

Point of comparison: B4, “IC50, cytotoxic effect on Reh cells (CellTiter-Glo, 72 h)” value 1.59 µg/mL. Against it:
- B1 — 66-fold lower, 0.0242 µg/mL
- B2 — 1.8-fold lower, 0.889 µg/mL
- B3 — 9.8-fold lower, 0.163 µg/mL
- B5 — 100-fold lower, 0.0159 µg/mL
- B6 — 8.1-fold lower, 0.196 µg/mL

Point of comparison: B1, “eff. (efficiency %), cytotoxic effect on A172 cells” value 92.5%. Against it:
- B2 — higher, 93.2%
- B5 — higher, 98.2%
- B6 — lower, 90.8%

Point of comparison: B6, “eff. (efficiency %), cytotoxic effect on Jurkat E6-1 cells” value 87.1%. Against it:
- B1 — higher, 98.9%
- B2 — lower, 82%
- B3 — higher, 90.7%
- B4 — higher, 90.7%
- B5 — lower, 80.2%

Point of comparison: B1, “eff. (efficiency %), cytotoxic effect on MSTO-211H cells” value 98.5%. Against it:
- B2 — lower, 98.2%
- B3 — higher, 99.1%
- B4 — lower, 47.8%
- B5 — lower, 97.5%
- B6 — lower, 91%

Point of comparison: B1, “eff. (efficiency %), cytotoxic effect on Mia PaCa-2 cells” value 81.7%. Against it:
- B2 — higher, 86.3%
- B3 — lower, 53%
- B4 — lower, 33.2%
- B5 — higher, 88.8%
- B6 — lower, 52.9%

Point of comparison: B5, “eff. (efficiency %), cytotoxic effect on Reh cells” value 89.8%. Against it:
- B1 — higher, 98.8%
- B2 — higher, 98.6%
- B3 — lower, 77.4%
- B4 — lower, 45%
- B6 — lower, 75.3%

Biological target: T1, TRAILR2 receptor on the surface of …
Experiment: cell-based or functional assay
Remark: another data set of the same source

Point of comparison: B10, “IC50, cytotoxic effect on A2780 cells (CellTiter-Glo, 72 h)” value 1.1 µg/mL. Against it:
- B7 — 7.3-fold lower, 0.151 µg/mL

Point of comparison: B7, “IC50, cytotoxic effect on Jurkat E6-1 cells (CellTiter-Glo, 72 h)” value 0.0134 µg/mL. Against it:
- B8 — 8.1-fold higher, 0.108 µg/mL
- B9 — within 1.5-fold, 0.0165 µg/mL
- B4 — 15-fold higher, 0.201 µg/mL
- B10 — 1.5-fold lower, 0.00871 µg/mL

Point of comparison: B9, “IC50, cytotoxic effect on Mia PaCa-2 cells (CellTiter-Glo, 72 h)” value 0.173 µg/mL. Against it:
- B7 — within 1.5-fold, 0.135 µg/mL
- B8 — 5.9-fold higher, 1.02 µg/mL
- B4 — 17-fold higher, 3.01 µg/mL
- B10 — 3.5-fold higher, 0.604 µg/mL

Point of comparison: B10, “IC50, cytotoxic effect on NCI-H460 cells (CellTiter-Glo, 72 h)” value 0.178 µg/mL. Against it:
- B7 — 2.1-fold lower, 0.0865 µg/mL
- B8 — 5.8-fold higher, 1.03 µg/mL
- B9 — 2.7-fold lower, 0.0651 µg/mL

Point of comparison: B8, “IC50, cytotoxic effect on NCI-H1975 cells (CellTiter-Glo, 72 h)” value 1.67 µg/mL. Against it:
- B7 — 15-fold lower, 0.109 µg/mL
- B9 — 5.4-fold lower, 0.312 µg/mL
- B4 — 3.1-fold lower, 0.542 µg/mL
- B10 — 4.1-fold lower, 0.411 µg/mL

Point of comparison: B8, “IC50, cytotoxic effect on SMMC-7721 cells (CellTiter-Glo, 72 h)” value 0.583 µg/mL. Against it:
- B7 — 49-fold lower, 0.012 µg/mL
- B9 — 30-fold lower, 0.0197 µg/mL
- B4 — 10-fold higher, 6.12 µg/mL
- B10 — 3.3-fold lower, 0.178 µg/mL

Point of comparison: B4, “eff. (efficiency %), cytotoxic effect on Jurkat E6-1 cells” value 90.7%. Against it:
- B7 — higher, 97.3%
- B8 — lower, 84.9%
- B9 — higher, 98.1%
- B10 — higher, 98.6%

Point of comparison: B7, “eff. (efficiency %), cytotoxic effect on Mia PaCa-2 cells” value 88.4%. Against it:
- B8 — lower, 80%
- B9 — lower, 74%
- B4 — lower, 27.5%
- B10 — lower, 86.8%

Point of comparison: B10, “eff. (efficiency %), cytotoxic effect on NCI-H460 cells” value 93.3%. Against it:
- B7 — higher, 96.2%
- B8 — lower, 80.6%
- B9 — lower, 46.4%

Point of comparison: B8, “eff. (efficiency %), cytotoxic effect on NCI-H1975 cells” value 68.8%. Against it:
- B7 — higher, 84.6%
- B9 — higher, 83%
- B4 — lower, 62.4%
- B10 — higher, 83.4%

Point of comparison: B4, “eff. (efficiency %), cytotoxic effect on SMMC-7721 cells” value 48%. Against it:
- B7 — higher, 99.4%
- B8 — higher, 93.7%
- B9 — higher, 96.5%
- B10 — higher, 95.7%
